From patent US20150272562A1 (ETHICON, published 2015) come the findings set out here.

Test [1] has as its target T1, fibrin monomers, dimers and/or oligomers (UniProt P02671 36-629; P02675 45-491; P02679 27-437).
T1 sequence (looked up) 1: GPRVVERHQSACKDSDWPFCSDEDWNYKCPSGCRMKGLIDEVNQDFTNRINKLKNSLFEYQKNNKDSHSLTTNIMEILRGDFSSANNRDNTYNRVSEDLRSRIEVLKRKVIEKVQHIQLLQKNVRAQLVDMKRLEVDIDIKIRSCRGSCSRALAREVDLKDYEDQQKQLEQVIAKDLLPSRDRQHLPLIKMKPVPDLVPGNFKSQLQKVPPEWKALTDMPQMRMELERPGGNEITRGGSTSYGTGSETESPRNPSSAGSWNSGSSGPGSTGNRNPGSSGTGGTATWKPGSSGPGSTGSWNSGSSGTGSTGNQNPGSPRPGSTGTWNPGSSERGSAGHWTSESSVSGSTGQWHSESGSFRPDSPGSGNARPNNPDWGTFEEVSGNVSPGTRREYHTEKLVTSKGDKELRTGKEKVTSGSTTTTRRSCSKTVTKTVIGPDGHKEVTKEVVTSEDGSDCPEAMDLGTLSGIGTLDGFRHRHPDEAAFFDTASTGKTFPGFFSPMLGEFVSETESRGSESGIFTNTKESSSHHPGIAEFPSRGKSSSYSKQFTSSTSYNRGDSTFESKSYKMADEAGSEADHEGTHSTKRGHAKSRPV
T1 sequence (looked up) 2: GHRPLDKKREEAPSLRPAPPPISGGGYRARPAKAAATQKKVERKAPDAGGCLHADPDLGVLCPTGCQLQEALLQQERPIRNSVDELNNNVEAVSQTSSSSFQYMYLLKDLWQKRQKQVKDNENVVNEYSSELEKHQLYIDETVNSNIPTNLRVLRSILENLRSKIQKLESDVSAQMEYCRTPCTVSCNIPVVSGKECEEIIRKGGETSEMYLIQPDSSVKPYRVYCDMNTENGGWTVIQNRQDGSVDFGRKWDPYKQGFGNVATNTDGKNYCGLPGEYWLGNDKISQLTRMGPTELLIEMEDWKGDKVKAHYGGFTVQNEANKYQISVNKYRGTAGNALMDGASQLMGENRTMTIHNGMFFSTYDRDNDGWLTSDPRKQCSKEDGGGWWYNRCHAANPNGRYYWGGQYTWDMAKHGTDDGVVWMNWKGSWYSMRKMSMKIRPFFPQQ
T1 sequence (looked up) 3: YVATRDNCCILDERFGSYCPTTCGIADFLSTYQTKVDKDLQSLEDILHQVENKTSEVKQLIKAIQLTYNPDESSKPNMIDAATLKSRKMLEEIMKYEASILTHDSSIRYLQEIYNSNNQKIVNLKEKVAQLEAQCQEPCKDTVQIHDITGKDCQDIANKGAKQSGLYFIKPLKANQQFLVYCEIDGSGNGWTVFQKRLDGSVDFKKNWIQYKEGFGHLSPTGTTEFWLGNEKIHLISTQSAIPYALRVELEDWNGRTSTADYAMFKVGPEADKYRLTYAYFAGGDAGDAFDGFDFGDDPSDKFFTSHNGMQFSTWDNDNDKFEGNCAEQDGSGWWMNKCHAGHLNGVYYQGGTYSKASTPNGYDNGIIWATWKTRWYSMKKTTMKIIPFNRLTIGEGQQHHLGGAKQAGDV
The test can be described thus: cell-based or functional assay.

For test [2], the target named is T1, fibrin monomers, dimers and/or oligomers. The test can be described thus: cell-based or functional assay. This is another data set of the same source.

B1: GPRP peptide (Gly-Pro-Arg-Pro) (peptide)
peptide: GPRP
Take B1: in test [1], the “Time to clot (cessation of flow on tube inversion); GPRP 0.1 mM, 1.1-fold GPRP:fibrin, 3% fibrin, thrombin 100 IU/ml” value turned out to be 5 s; the “Time to clot (cessation of flow on tube inversion); GPRP 0.2 mM, 2.3-fold GPRP:fibrin, 3% fibrin, thrombin 100 IU/ml” value was 7 s; the “Time to clot (cessation of flow on tube inversion); GPRP 0.5 mM, 5.7-fold GPRP:fibrin, 3% fibrin, thrombin 100 IU/ml” value was 11 s; the “Time to clot (cessation of flow on tube inversion); GPRP 1 mM, 11.3-fold GPRP:fibrin, 3% fibrin, thrombin 100 IU/ml” value stood at 13 s. Moreover, in test [1], the “Time to clot (cessation of flow on tube inversion); GPRP 1.5 mM, 17-fold GPRP:fibrin, 3% fibrin, thrombin 100 IU/ml” value was determined as 22 s; the “Time to clot (cessation of flow on tube inversion); GPRP 2 mM, 22.7-fold GPRP:fibrin, 3% fibrin, thrombin 100 IU/ml” value is 28 s; the “Time to clot (cessation of flow on tube inversion); GPRP 3 mM, 34-fold GPRP:fibrin, 3% fibrin, thrombin 100 IU/ml” value amounted to 2.5 min; the “Time to clot (cessation of flow on tube inversion); GPRP 4 mM, 45-fold GPRP:fibrin, 3% fibrin, thrombin 100 IU/ml” value is 8 min. Besides, the “Time to clot (cessation of flow on tube inversion); GPRP 5 mM, 56.7-fold GPRP:fibrin, 3% fibrin, thrombin 100 IU/ml” value in test [1] was determined as 15 min. The “fibrin polymerization; 40 mM GPRP, molar ratio above 340:1 GPRP:fibrin” value in test [2] was > 14 days.
